Test [1] addresses ELAM-Rg, soluble ELAM-1-IgG1 chimera (ELAM-1 extracellular domain fused to hinge, CH2 and CH3 domains of human IgG1) (human) (UniProt P16581). Nature of the test: inhibition of adhesion of myeloid HL60 cells to immobilized ELAM-1, fusion protein at about 50 µg/ml.
Test [2] shares this target. Nature of the test: inhibition of adhesion of human T lymphocytes to immobilized ELAM-1, fusion protein at about 50 µg/ml.

Bounds are passed on as bounds.

Sequence of ELAM-Rg, soluble ELAM-1-IgG1 chimera (ELAM-1 extracellular domain fused to hinge, CH2 and CH3 domains of human IgG1) (human) (P16581 22-556 limits assumed, stated change not applied): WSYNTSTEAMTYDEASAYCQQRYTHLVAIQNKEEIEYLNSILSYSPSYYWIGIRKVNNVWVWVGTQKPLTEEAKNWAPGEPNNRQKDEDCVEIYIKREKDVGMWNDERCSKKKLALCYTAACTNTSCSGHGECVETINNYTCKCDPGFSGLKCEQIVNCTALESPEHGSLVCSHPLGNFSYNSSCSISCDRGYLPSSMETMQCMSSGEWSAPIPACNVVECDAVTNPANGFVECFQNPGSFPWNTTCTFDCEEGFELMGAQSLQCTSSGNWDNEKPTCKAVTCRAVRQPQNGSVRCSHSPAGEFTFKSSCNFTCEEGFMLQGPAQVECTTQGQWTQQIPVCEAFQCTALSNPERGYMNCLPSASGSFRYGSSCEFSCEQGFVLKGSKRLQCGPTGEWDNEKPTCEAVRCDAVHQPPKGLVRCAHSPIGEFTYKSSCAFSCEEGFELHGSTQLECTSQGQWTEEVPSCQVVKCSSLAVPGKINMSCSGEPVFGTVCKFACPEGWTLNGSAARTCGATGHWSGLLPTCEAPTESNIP

As to “α1-AGP-IgG1 fusion protein (α1-AGP-Hinge-CH2-CH3) produced in COS cells (Fc fusion)”, the inhibition of adhesion in test [1] and in test [2] was above 50% throughout.

(Values after patent publication US6613746.)
